The target of the assay is T1, EpCAM (epithelial cell adhesion molecule) on the surface of HT29 colon cancer cells (UniProt P16422 24-314, limits assumed).
T1 construct: whole, on cells; HT29 is a human cell line
T1 sequence (looked up): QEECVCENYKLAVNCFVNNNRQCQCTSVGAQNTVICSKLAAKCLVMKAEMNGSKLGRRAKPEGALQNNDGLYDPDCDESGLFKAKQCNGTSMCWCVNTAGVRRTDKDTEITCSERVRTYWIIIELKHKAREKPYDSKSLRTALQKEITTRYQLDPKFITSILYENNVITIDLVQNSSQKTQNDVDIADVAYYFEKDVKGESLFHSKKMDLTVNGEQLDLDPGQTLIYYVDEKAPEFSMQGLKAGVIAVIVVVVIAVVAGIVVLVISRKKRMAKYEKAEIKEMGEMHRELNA
Nature of the assay: confocal fluorescence microscopy of HT29 spheroids with FITC-Ep114/PEG/gold nanoparticles (PEG ratios 100/1, 200/1, 300/1). The procedure:
A colon cancer cell line HT29 was used to conduct a cellular uptake test. First, by using 96 holes type culture plate for spheroids, EZ-Sphere™ (Asahi Glass Co., Ltd.), spheroid of HT29 cells was formed.
Specifically, HT29, 4×10⁵ cells were suspended in a culture medium in which 20 ng/ml of human EGF (manufactured by Miltenyi Biotec, K.K.), 20 ng/ml of human FGF-2 (manufactured by Miltenyi Biotec K.K.), 1/50 amount of B-27 supplement×50 (manufactured by GIBCO), and 1/100 amount of Penicillin-Streptomycin Solution×100 (manufactured by Wako Pure Chemical Industries, Ltd.) were added to 3 ml of D-MEM/F-12 medium (Dulbecco's Modified Eagle Medium: Nutrient Mixture F-12 1:1 Mixture, manufactured by GIBCO). The suspension was dispensed to each well of 200 μl, and was cultured in CO₂ incubator at 37° C. for 72 hours.
Then, a part of the spheroids (approximately 20 μl) and the gold particle-peptide complex were placed on a glass bottom dish (D110300, Matsunami Glass Ind., Ltd.), and irradiated laser of 488 nm with 40 magnification objective lens by using an inverted confocal laser microscope (FLUOVIEW FV1000IX81 type, manufactured by Olympus Corporation), and observed using a filter for Alexa488.

Primed or numbered codes have the meaning given here. Ends that are not written are not given here. FITC′ = fluorescein isothiocyanate

B1: EpCAM-binding peptide Ep114 (FITC-labelled), bound to PEG-covered gold nanoparticles (peptide)
peptide: {FITC′}-KHLQCVRNICWSGGK
modifications: cysteine pairing not given here; also: bound to PEG-covered gold nanoparticles
notes: In the assay the peptide covered approx. 15 nm gold nanoparticles that were partially covered with mPEG-SH 5k (PEG:particle ratios 100/1, 200/1, 300/1; 2000 peptides per particle); also called EP114 peptide
As to B1, the binding result is “binds”.

The values are drawn from patent US20160258940A1 (IMRA AMERICA, published 2016).
